# Test results reported in PMC9016069, “Inosine triphosphate pyrophosphatase from Trypanosoma brucei cleanses cytosolic pools from deaminated nucleotides” (Scientific Reports, 2022).
# B1: TbITPA (Trypanosoma brucei brucei TREU927) (protein)
# chain: MTDASKTTKSVENANIPTLTFVTGNAGKLREVQACLGGYVTTESVKLDLPEIQASSVSRVSREKALLAYERLKKPVLVEDTGLSFEALGGMPGPYVRWFLDAVGPIGLAKMLNGFESRSAQVDCVFTYCASPGEVLQFIGSSRGSISMVPRGEGGFGFDTIFMPDDGNGQTFAEMSASTKNTISHRARALVEVRKHFENSK
# notes: homodimer 48 kDa by gel filtration
# Key:
# Test in all cases: HPLC (MonoQ) product analysis, fit to substrate inhibition model
# TbITPA = target: T1, TbITPA (Trypanosoma brucei, UniProt Q389X7); type: biochemical; details: substrate inhibition constant; 5 mM MgCl2, 20 mM Tris-HCl pH 7.5, 0.1 mg/mL BSA, 1 mM DTT, 25 °C
# T1 construct: gene Tb10.6k15.0290; homodimer 48 kDa by gel filtration
# T1 sequence (Q389X7 87-287): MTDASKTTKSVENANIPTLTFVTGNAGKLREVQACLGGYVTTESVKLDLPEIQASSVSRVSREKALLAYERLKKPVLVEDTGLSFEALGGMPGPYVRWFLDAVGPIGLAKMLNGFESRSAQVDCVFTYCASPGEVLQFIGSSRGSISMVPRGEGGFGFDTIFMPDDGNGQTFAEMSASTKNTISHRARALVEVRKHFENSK
# Source text: HPLC (MonoQ) product analysis, fit to substrate inhibition model on TbITPA
# [1] = substrate: NC(=O)c1ncn([C@@H]2O[C@H](CO[P@@](=O)(O)O[P@](=O)(O)OP(=O)(O)O)[C@@H](O)[C@H]2O)n1; type: biochemical, Trypanosoma brucei; details: 5 mM MgCl2, 20 mM Tris-HCl pH 7.5, 0.1 mg/mL BSA, 1 mM DTT, 25 °C
# [2] = substrate: O=c1[nH]cnc2c1ncn2[C@H]1C[C@H](O)[C@@H](COP(=O)(O)OP(=O)(O)OP(=O)(O)O)O1; type: biochemical, Trypanosoma brucei; details: 5 mM MgCl2, 20 mM Tris-HCl pH 7.5, 0.1 mg/mL BSA, 1 mM DTT, 25 °C
# [3] = substrate: O=P(O)(O)OP(=O)(O)OP(=O)(O)OC[C@H]1O[C@@H](n2cnc3c(O)ncnc32)[C@H](O)[C@@H]1O; type: biochemical, Trypanosoma brucei; details: 5 mM MgCl2, 20 mM Tris-HCl pH 7.5, 0.1 mg/mL BSA, 1 mM DTT, 25 °C
# [4] = substrate: O=c1[nH]c(=O)c2ncn([C@@H]3O[C@H](COP(=O)(O)OP(=O)(O)OP(=O)(O)O)[C@@H](O)[C@H]3O)c2[nH]1; type: biochemical, Trypanosoma brucei; details: 5 mM MgCl2, 20 mM Tris-HCl pH 7.5, 0.1 mg/mL BSA, 1 mM DTT, 25 °C
molecule,measurement,setting,value
O=c1[nH]c(=O)c2ncn([C@@H]3O[C@H](COP(=O)(O)OP(=O)(O)OP(=O)(O)O)[C@@H](O)[C@H]3O)c2[nH]1 [XTP],Ki (μM)^a,TbITPA,951 ± 220 µM
O=c1[nH]cnc2c1ncn2[C@@H]1O[C@H](COP(=O)(O)OP(=O)(O)OP(=O)(O)O)[C@@H](O)[C@H]1O [ITP],Ki (μM)^a,TbITPA,824 ± 275 µM
O=c1[nH]cnc2c1ncn2[C@H]1C[C@H](O)[C@@H](COP(=O)(O)OP(=O)(O)OP(=O)(O)O)O1 [dITP],Ki (μM)^a,TbITPA,98 ± 42 µM
B1,Km,[1],75 ± 24 µM
same,kcat,[1],100 ± 14 s⁻¹
same,Km,[2],44 ± 18 µM
same,kcat,[2],280 ± 74 s⁻¹
same,kcat/Km,[2],6.4e+06 M⁻¹ s⁻¹
same,Km,[3],17 ± 3 µM
same,kcat,[3],59 ± 5 s⁻¹
same,kcat/Km,[3],3.5e+06 M⁻¹ s⁻¹
same,Km,[4],27 ± 4 µM
same,kcat,[4],37 ± 2 s⁻¹
same,kcat/Km,[4],1.4e+06 M⁻¹ s⁻¹
